According to patent publication US20240132578A1:

Experiments:
Experiment in all cases: cell-based or functional assay
[1] = biological target: HIV-1 JR-CSF Env Q422A (HIV-1 (isolate JR-CSF)) (UniProt P20871)
[2] = biological target: HIV-1 envelope glycoprotein (Env) of isolate CMU02, subtype AE (HIV-1)
[3] = biological target: HIV-1 envelope glycoprotein (Env) of isolate MG RM-A-004, subtype A (HIV-1)
[4] = biological target: HIV-1 Env of isolate MGRM-AG-003 (pseudovirus) (HIV-1)
[5] = biological target: HIV-1 envelope glycoprotein (Env) of isolate APV_13, on pseudovirus (HIV-1)
[6] = biological target: HIV-1 Env of isolate MGRM-AG-012 (pseudovirus) (HIV-1)
[7] = biological target: HIV-1 envelope glycoprotein (Env) of isolate 94 KE 105, subtype AC (HIV-1)
[8] = biological target: HIV-1 envelope glycoprotein (Env) of isolate 93IN905, on pseudovirus (HIV-1)
[9] = biological target: HIV-1 envelope glycoprotein (Env) of isolate SC422661.8, on pseudovirus (HIV-1)
[10] = biological target: HIV-1 envelope glycoprotein (Env) of isolate 92UG031, subtype A (HIV-1)
[11] = biological target: HIV-1 envelope glycoprotein (Env) of isolate MGRM-Chronic-B-003, on pseudovirus (HIV-1)
[12] = biological target: HIV-1 envelope glycoprotein (Env) of isolate PVO.4, on pseudovirus (HIV-1)
[13] = biological target: HIV-1 92TH021 Env (HIV-1)
[14] = biological target: HIV-1 envelope glycoprotein (Env) of isolate MGRM-Chronic-B-024, on pseudovirus (HIV-1)
[15] = biological target: HIV-1 envelope glycoprotein (Env) of isolate CAAN.A2, on pseudovirus (HIV-1)
[16] = biological target: HIV-1 envelope glycoprotein (Env) of isolate MG RM-A-011, subtype A (HIV-1)
[17] = biological target: HIV-1 Env of isolate MGRM-G-011 (subtype G) (HIV-1)
[18] = biological target: HIV-1 envelope glycoprotein (Env) of isolate MGRM-C-007 (HIV-1)
[19] = biological target: HIV-1 92TH021 Env (pseudovirus) (HIV-1)
[20] = biological target: HIV-1 Env of isolate THR0.18 (Acute), clade B (HIV-1)
[21] = biological target: HIV-1 Env of isolate SC422661.8 (Acute), clade B (HIV-1)
[22] = biological target: HIV-1 IAVI-C18 envelope (Env) on pseudovirus (HIV-1)
[23] = biological target: HIV-1 MGRM-AE-002 Env (pseudovirus) (HIV-1)
[24] = biological target: HIV-1 envelope glycoprotein (Env) of isolate MGRM-C-019 (HIV-1)
[25] = biological target: HIV-1 Env of pseudovirus MGRM-G-015 (HIV-1)
[26] = biological target: HIV-1 IAVI-C22 envelope (Env) on pseudovirus (HIV-1)
[27] = biological target: HIV-1 envelope glycoprotein (Env) of isolate LAVIC_18 (HIV-1)
[28] = biological target: HIV-1 Env of isolate MGRM-D-004 (pseudovirus) (HIV-1)
[29] = biological target: HIV-1 Env of pseudovirus isolate MGRM-C-007 (clade C) (HIV-1)
[30] = biological target: HIV-1 Env of isolate MGRM-C-001 (HIV-1)
[31] = biological target: HIV-1 Env of isolate MGRM-F1-008 (HIV-1)
[32] = biological target: HIV-1 Env of isolate MGRM-AE-005 (subtype AE) (HIV-1)
[33] = biological target: HIV-1 Env of pseudovirus isolate MGRM-C-022 (clade C) (HIV-1)
[34] = biological target: HIV-1 Env of isolate MGRM-D-001 (HIV-1)
[35] = biological target: HIV-1 Env of isolate MG RM-A-006 (pseudovirus) (HIV-1)
[36] = biological target: HIV-1 Env of isolate CMU02 (pseudovirus) (HIV-1)
[37] = biological target: HIV-1 Env of pseudovirus isolate MGRM-Chronic-B-001 (clade B) (HIV-1)

Chain of 4970_K22 (PGT-144) (antibody) (VH): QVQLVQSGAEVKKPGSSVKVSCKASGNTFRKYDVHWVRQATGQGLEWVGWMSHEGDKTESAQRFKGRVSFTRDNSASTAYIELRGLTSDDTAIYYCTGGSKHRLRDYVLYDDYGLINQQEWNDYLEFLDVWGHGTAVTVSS
Chain of 4970_K22 (PGT-144) (antibody) (VL): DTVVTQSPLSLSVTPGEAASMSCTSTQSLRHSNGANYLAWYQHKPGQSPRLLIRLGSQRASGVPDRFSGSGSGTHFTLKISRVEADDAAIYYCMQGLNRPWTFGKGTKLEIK
Chain of 5329_C19 (PGT-136) (antibody) (VH): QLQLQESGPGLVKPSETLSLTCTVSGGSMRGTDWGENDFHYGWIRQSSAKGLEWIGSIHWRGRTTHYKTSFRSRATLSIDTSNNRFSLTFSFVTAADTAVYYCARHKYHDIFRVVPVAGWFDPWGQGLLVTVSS
Chain of 5329_C19 (PGT-136) (antibody) (VL): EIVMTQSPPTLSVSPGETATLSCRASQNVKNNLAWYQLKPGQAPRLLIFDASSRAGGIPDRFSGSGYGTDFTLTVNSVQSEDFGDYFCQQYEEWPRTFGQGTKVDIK
Chain of 4995_P16 (PGT-145) (antibody) (VH): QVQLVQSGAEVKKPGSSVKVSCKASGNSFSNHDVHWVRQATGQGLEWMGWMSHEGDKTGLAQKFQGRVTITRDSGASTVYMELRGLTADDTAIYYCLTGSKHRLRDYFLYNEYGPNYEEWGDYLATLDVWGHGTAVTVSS
Chain of 4995_P16 (PGT-145) (antibody) (VL): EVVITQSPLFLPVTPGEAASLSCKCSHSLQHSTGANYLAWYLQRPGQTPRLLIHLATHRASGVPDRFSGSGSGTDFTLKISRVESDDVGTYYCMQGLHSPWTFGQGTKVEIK
Chain of 5345_I01 (PGT-137) (antibody) (VH): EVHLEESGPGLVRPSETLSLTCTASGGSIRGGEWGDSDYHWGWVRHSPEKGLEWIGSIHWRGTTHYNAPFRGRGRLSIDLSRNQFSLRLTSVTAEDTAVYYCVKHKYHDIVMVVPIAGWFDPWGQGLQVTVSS
Chain of 5345_I01 (PGT-137) (antibody) (VL): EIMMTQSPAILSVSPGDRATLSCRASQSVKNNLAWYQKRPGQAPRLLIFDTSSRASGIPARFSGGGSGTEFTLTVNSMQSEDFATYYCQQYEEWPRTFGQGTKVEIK
Chain of 4995_E20 (PGT-142) (antibody) (VH): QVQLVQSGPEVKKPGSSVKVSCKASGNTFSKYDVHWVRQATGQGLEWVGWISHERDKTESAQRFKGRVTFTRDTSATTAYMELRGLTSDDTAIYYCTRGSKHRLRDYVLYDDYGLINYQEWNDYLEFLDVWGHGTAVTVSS
Chain of 4995_E20 (PGT-142) (antibody) (VL): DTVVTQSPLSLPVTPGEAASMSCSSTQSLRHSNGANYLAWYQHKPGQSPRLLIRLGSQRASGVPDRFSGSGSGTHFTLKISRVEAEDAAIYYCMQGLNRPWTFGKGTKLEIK

Substance	Fold IC50 increase relative to wild-type (pseudovirus neutralization) [1] [fold]	IC50, pseudovirus neutralization [2] [µg/mL]	IC50, pseudovirus neutralization [3] [µg/mL]	IC50 (µg/mL), pseudovirus neutralization [4] [µg/mL]	IC50, pseudovirus neutralization [5] [µg/mL]	IC50 (µg/mL), pseudovirus neutralization [6] [µg/mL]	IC50, pseudovirus neutralization [7] [µg/mL]	IC50, pseudovirus neutralization [8] [µg/mL]	IC50, pseudovirus neutralization [9] [µg/mL]	IC50, pseudovirus neutralization [10] [µg/mL]	IC50, pseudovirus neutralization [11] [µg/mL]	IC50, pseudovirus neutralization [12] [µg/mL]	IC50, pseudovirus neutralization [13] [µg/mL]	IC50, pseudovirus neutralization [14] [µg/mL]	IC50, pseudovirus neutralization [15] [µg/mL]	IC50, pseudovirus neutralization [16] [µg/mL]	IC50 (µg/mL), pseudovirus neutralization [28] [µg/mL]	IC50, pseudovirus neutralization [29] [µg/mL]	IC50 (µg/mL), pseudovirus neutralization [30] [µg/mL]	IC50 (µg/mL), pseudovirus neutralization [31] [µg/mL]	further results
4858_P08 (PGT-123) (antibody)	0.8	> 50	> 50	> 50	0.138	> 50	0.024	0.004	0.039	> 50	0.008	0.105	> 10	> 50	0.015	> 50	–	–	–	–	–
1496_C09 (PG9) (TCN-109) (antibody)	–	–	–	–	–	22.8	–	–	–	–	–	–	0.103	–	–	–	–	–	–	–	IC50 (µg/mL), pseudovirus neutralization [17]: 0.335 µg/mL; IC50 (µg/ml), pseudovirus neutralization [18]: 0.09 µg/mL; IC50 (µg/ml), pseudovirus neutralization [19]: 0.09 µg/mL; IC50 (µg/ml), pseudovirus neutralization [20]: 12.4 µg/mL; IC50 (µg/ml), pseudovirus neutralization [21]: 0.79 µg/mL; neutralization IC50 [22]: 0.0535 µg/mL; IC50 (µg/ml), pseudovirus neutralization [23]: 0.04 µg/mL; IC50 (µg/ml), pseudovirus neutralization [24]: 0.01 µg/mL; IC50 (µg/ml), pseudovirus neutralization [25]: 1.51 µg/mL; neutralization IC50 [26]: 24.9 µg/mL; IC50 (µg/ml), pseudovirus neutralization [27]: 0.1 µg/mL
5114_A19 (PGT-128) (antibody)	0.2	–	–	–	–	–	–	–	–	–	–	–	–	–	–	–	24.9	0.111	> 50	> 50	IC50, pseudovirus neutralization [32]: 0.032 µg/mL; IC50, pseudovirus neutralization [33]: 0.042 µg/mL
5329_C19 (PGT-136) (antibody)	–	–	–	–	–	–	–	–	–	–	–	–	–	–	–	–	> 50	> 50	7.52	> 50	IC50, pseudovirus neutralization [32]: > 50 µg/mL; IC50, pseudovirus neutralization [33]: > 50 µg/mL
4838_L06 (PGT-121) (antibody)	–	> 50	> 50	–	0.251	–	0.029	0.005	0.098	> 50	0.011	0.137	> 10	0.195	0.011	> 50	–	–	–	–	–
4970_K22 (PGT-144) (antibody)	–	–	–	–	–	–	–	–	–	–	–	–	–	–	–	–	–	–	–	–	IC50 (µg/mL), pseudovirus neutralization [34]: > 50 µg/mL; IC50 (µg/mL), pseudovirus neutralization [17]: 1.58 µg/mL; IC50 (µg/mL), single-round pseudovirus neutralization [35]: > 50 µg/mL; IC50 (µg/mL), single-round pseudovirus neutralization [36]: > 50 µg/mL; IC50, pseudovirus neutralization [37]: > 50 µg/mL
4995_E20 (PGT-142) (antibody)	–	–	–	–	–	–	–	–	–	–	–	–	–	–	–	–	–	–	–	–	IC50 (µg/mL), pseudovirus neutralization [34]: > 50 µg/mL; IC50 (µg/mL), pseudovirus neutralization [17]: 0.046 µg/mL; IC50 (µg/mL), single-round pseudovirus neutralization [35]: > 50 µg/mL; IC50 (µg/mL), single-round pseudovirus neutralization [36]: > 50 µg/mL; IC50, pseudovirus neutralization [37]: > 50 µg/mL
5141_B17 (PGT-126) (antibody)	1.1	> 50	> 50	> 50	0.012	> 50	0.006	0.015	0.119	> 50	0.041	0.017	0.115	> 50	0.273	> 50	–	–	–	–	–
5343_B08 (PGT-135) (antibody)	0.8	–	–	–	–	–	–	–	–	–	–	–	–	–	–	–	> 50	> 50	10.1	> 50	IC50, pseudovirus neutralization [32]: > 50 µg/mL; IC50, pseudovirus neutralization [33]: > 50 µg/mL
4995_P16 (PGT-145) (antibody)	–	–	–	–	–	–	–	–	–	–	–	–	–	–	–	–	–	–	–	–	IC50 (µg/mL), pseudovirus neutralization [34]: 0.56 µg/mL; IC50 (µg/mL), pseudovirus neutralization [17]: 0.028 µg/mL; IC50 (µg/mL), single-round pseudovirus neutralization [35]: > 50 µg/mL; IC50 (µg/mL), single-round pseudovirus neutralization [36]: 1.43 µg/mL; IC50, pseudovirus neutralization [37]: 3.22 µg/mL
5145_B14 (PGT-127) (antibody)	0.1	> 50	> 50	> 50	0.026	> 50	0.023	0.024	36.7	> 50	0.12	0.164	–	> 50	0.371	> 50	–	–	–	–	–
4877_D15 (PGT-122) (antibody)	–	> 50	> 50	43.7	0.778	> 50	0.056	0.013	0.103	> 50	0.008	0.689	> 10	2.31	0.011	> 50	–	–	–	–	–
PGV04 (antibody)	–	–	–	0.058	–	0.04	–	–	–	–	–	–	–	–	–	–	–	–	–	–	IC50 (µg/mL), pseudovirus neutralization [17]: 0.78 µg/mL; IC50 (µg/mL), pseudovirus neutralization [36]: 1.24 µg/mL
5147_N06 (PGT-130) (antibody)	1	–	–	–	–	–	–	–	–	–	–	–	0.0082	–	–	–	1.21	> 50	> 50	0.065	IC50, pseudovirus neutralization [32]: 0.006 µg/mL; IC50, pseudovirus neutralization [33]: 0.127 µg/mL
5136_H01 (PGT-131) (antibody)	1.9	–	–	–	–	–	–	–	–	–	–	–	–	–	–	–	2.01	> 50	> 50	2.74	IC50, pseudovirus neutralization [32]: 0.017 µg/mL; IC50, pseudovirus neutralization [33]: 0.78 µg/mL
5345_I01 (PGT-137) (antibody)	–	–	–	–	–	–	–	–	–	–	–	–	–	–	–	–	> 50	> 50	21.5	> 50	IC50, pseudovirus neutralization [32]: > 50 µg/mL; IC50, pseudovirus neutralization [33]: > 50 µg/mL
5123_A06 (PGT-125) (antibody)	1.2	> 50	> 50	> 50	0.007	> 50	0.004	0.009	30.1	> 50	0.157	0.042	0.0066	> 50	5.47	> 50	–	–	–	–	Neutralization by PGT-125, IC50 [19]: 0.0066 µg/mL; Neutralization by PGT-125, IC80 [19]: 0.0292 µg/mL; Neutralization by PGT-125, IC90 [19]: 0.0701 µg/mL; Neutralization by PGT-125, IC95 [19]: 0.157 µg/mL
